B1: Twister Ribozyme (parent)
chain: AACACUGCCAAUGCCGGUCCCAAGCCCGGAUAAAAGUGGAGGGGGCGG

Variants of: B1
Assay: self-cleavage, relative activity (ratio to wild type); higher = more cleavage; co-transcriptional

Variant | self-cleavage
U12C G48U | 1.03
C20A A35G | 0.0546
A2C C8U | 0.0384
C8A C46G | 0.353
A1U U6A | 0.0513
U12C G13A | 0.772
U12C G13U | 0.659
C20U C26A | 0.138
A33C G39C | 0.12
A2C G7A | 0.0438
A40G C46G | 0.184
A1G C8U | 0.245
G7A G17U | 0.103
G7A G17A | 0.083
A30U G43C | 0.229
A11C G43A | 0.167
G16C G38C | 0.572
C25U G44U | 0.809
C8A C15G | 0.0688
A1G G36A | 0.252
A35U G38C | 0.973
G17U G29U | 0.158
G16U G41A | 0.278
G17A G43C | 0.129

Variant | self-cleavage
G16A G36A | 0.409
A4U G43U | 0.0514
A10G A34C | 0.498
G13U A40U | 0.16
G13A G17C | 0.0471
U31G U37G | 0.734
G38A C46U | 0.877
G17C A35U | 0.138
C5A G16A | 0.301
A2C G36C | 0.0351
A30C G44A | 1.01
A33U C46A | 0.851
C3A A22U | 0.127
G16U G29C | 0.544
A34G C46A | 0.736
G7A A34U | 0.154
U12G G28U | 0.464
A22U G43C | 0.129
G7C G36C | 0.0549
A4U G7A | 0.1
A22G A33G | 0.255
C8U G48A | 0.45
A10C A23C | 0.242
C15A A40U | 0.116

Variant | self-cleavage
A2C C9G | 0.0449
U18C C19U | 0.247
C5A C19U | 0.424
A32G G36U | 0.244
G41A G43C | 0.14
U18A A22G | 0.0469
A4C A33C | 0.108
A4C A33G | 0.146
U12C C46U | 0.957
A11C U31G | 0.917
G13C A35C | 0.403
G13U G39C | 0.11
C20A A33U | 0.0982
A4C G28C | 0.0895
U37A G47U | 0.702
U18C G36U | 0.0651
A4U G48U | 0.147
A1C G28C | 0.155
U12C G38C | 0.951
A2C A32C | 0.1
C15A G39A | 0.156
G24A A35G | 0.0812
U18G G45A | 0.0963
C19G | 0.485

Variant | self-cleavage
A35G G42U | 0.133
A1G U37G | 0.295
C8G C46U | 0.424
C25A U37G | 0.0674
C9U G48A | 0.491
A11C A23C | 0.0766
A23C G43A | 0.117
U6G G48C | 0.358
A10C G16C | 0.526
C25A A32U | 0.078
G7C A10U | 0.0545
U6G G29U | 0.173
C8A U18C | 0.0479
G16A U37G | 0.195
U12G A22G | 0.316
A10U C27U | 0.93
C3A C19U | 0.153
C3A C19A | 0.0415
G24U G28C | 0.0992
A34G G44U | 0.722
C3U C8U | 0.216
C15U G28A | 1.14
G28A G38U | 0.681
U12C G41U | 0.614

Variant | self-cleavage
U12G C19A | 0.601
C27U U31C | 0.651
C8A G24C | 0.31
A10G A35U | 0.943
A23U G45A | 0.391
A32G G43A | 0.284
C14U G44U | 1.15
G24C G45C | 0.0828
A11G G44U | 0.876
C8G G16U | 0.108
C20G G43C | 0.101
A23C G28U | 0.161
A22G U37A | 0.152
G13U G41A | 0.0904
G17C G48C | 0.152
C3A A11G | 0.185
G13A C19G | 0.123
C3G C21A | 0.0645
A4C G17C | 0.0696
C19A C26G | 0.0718
C14A C27U | 0.75
G43A G44U | 0.271
G16A G39A | 0.185
C5U G24C | 0.0979

Variant | self-cleavage
U18G G42C | 0.0775
U12A G38C | 1.11
C5A A23G | 0.0488
A11C C26U | 0.137
A10G G47C | 0.809
A1G G39C | 0.122
G42A G47U | 0.325
A1G G42C | 0.251
A11U A35G | 0.919
U6C G43U | 0.134
U18A G43C | 0.144
C25A G29U | 0.24
G16A C27G | 0.745
C19U G28U | 0.822
G38C G42A | 0.229
U6A A33G | 0.881
C26G A34C | 0.0761
C5A G47C | 0.199
C3A G28C | 0.179
C21A U31C | 0.153
A10U U12A | 0.986
C15A A32U | 0.667
C25G A33U | 0.246
A34C G42A | 0.143

Variant | self-cleavage
G17U A35C | 0.305
C9U G28C | 0.549
C5U C9G | 0.342
U12C C27A | 0.577
G42C C46A | 0.289
G7A G24U | 0.0739
A22G G24C | 0.0998
A2C U12G | 0.0824
A22C G39C | 0.161
A22C C25U | 0.948
A22C C25G | 0.222
A1C | 0.175
G29A G38A | 0.772
A35U G45A | 1.02
A4G G17C | 0.0548
G16A G43U | 0.321
A34U A35U | 0.841
C14A G47C | 0.44
G7C G24A | 0.0629
A22C G36U | 0.204
C14A U18A | 0.485
A23U G24U | 0.0593
C20G U31A | 0.103
